Data taken from patent US20090099029A1, “Methods and substrates for conducting assays” (Invitrogen Corporation, priority 2005, published 2009).
Numbering of substitutions follows the chain as printed.

B1: MAP3K11(MLK3) (protein)
chain: MEPLKSLFLKSPLGSWNGSGSGGGGGGGGGRPEGSPKAAGYANPVWTALFDYEPSGQDELALRKGDRVEVLSRDAAISGDEGWWAGQVGGQVGIFPSNYVSRGGGPPPCEVASFQELRLEEVIGIGGFGKVYRGSWRGELVAVKAARQDPDEDISVTAESVRQEARLFAMLAHPNIIALKAVCLEEPNLCLVMEYAAGGPLSRALAGRRVPPHVLVNWAVQIARGMHYLHCEALVPVIHRDLKSNNILLLQPIESDDMEHKTLKITDFGLAREWHKTTQMSAAGTYAWMAPEVIKASTFSKGSDVWSFGVLLWELLTGEVPYRGIDCLAVAYGVAVNKLTLPIPSTCPEPFAQLMADCWAQDPHRRPDFASILQQLEALEAQVLREMPRDSFHSMQEGWKREIQGLFDELRAKEKELLSREEELTRAAREQRSQAEQLRRREHLLAQWELEVFERELTLLLQQVDRERPHVRRRRGTFKRSKLRARDGGERISMPLDFKHRITVQASPGLDRRRNVFEVGPGDSPTFPRFRAIQLEPAEPGQAWGRQSPRRLEDSSNGERRACWAWGPSSPKPGEAQNGRRRSRMDEATWYLDSDDSSPLGSPSTPPALNGNPPRPSLEPEEPKRPVPAERGSSSGTPKLIQRALLRGTALLASLGLGRDLQPPGGPGRERGESPTTPPTPTPAPCPTEPPPSPLICFSLKTPDSPPTPAPLLLDLGIPVGQRSAKSPRREEEPRGGTVSPPPGTSRSAPGTPGTPRSPPLGLISRPRPSPLRSRIDPWSFVSAGPRPSPLPSPQPAPRRAPWTLFPDSDPFWDSPPANPFQGGPQDCRAQTKDMGAQAPWVPEAGP
modifications: left off: a dimerising Fc or GST
B2: MAP2K3(MEK3) (protein)
chain: MSKPPAPNPTPPRNLDSRTFITIGDRNFEVEADDLVTISELGRGAYGVVEKVRHAQSGTIMAVKRIRATVNSQEQKRLLMDLDINMRTVDCFYTVTFYGALFREGDVWICMELMDTSLDKFYRKVLDKNMTIPEDILGEIAVSIVRALEHLHSKLSVIHRDVKPSNVLINKEGHVKMCDFGISGYLVDSVAKTMDAGCKPYMAPERINPELNQKGYNVKSDVWSLGITMIEMAILRFPYESWGTPFQQLKQVVEEPSPQLPADRFSPEFVDFTAQCLRKNPAERMSYLELMEHPFFTLHKTKKTDIAAFVKEILGEDS
modifications: left off: a dimerising Fc or GST
B3: MAP2K6(MKK6) (protein)
chain: MSQSKGKKRNPGLKIPKEAFEQPQTSSTPPRDLDSKACISIGNQNFEVKADDLEPIMELGRGAYGVVEKMRHVPSGQIMAVKRIRATVNSQEQKRLLMDLDISMRTVDCPFTVTFYGALFREGDVWICMELMDTSLDKFYKQVIDKGQTIPEDILGKIAVSIVKALEHLHSKLSVIHRDVKPSNVLINALGQVKMCDFGISGYLVDSVAKTIDAGCKPYMAPERINPELNQKGYSVKSDIWSLGITMIELAILRFPYDSWGTPFQQLKQVVEEPSPQLPADKFSAEFVDFTSQCLKKNSKERPTYPELMQHPFFTLHESKGTDVASFVKLILGD
modifications: left off: small tags and cut ends
B4: MAP2K6, mutant (protein)
chain: B3 chain with S207E, T211E
modifications: left off: small tags and cut ends
B5: IRAK4 (protein)
chain: MNKPITPSTYVRCLNVGLIRKLSDFIDPQEGWKKLAVAIKKPSGDDRYNQFHIRRFEALLQTGKSPTSELLFDWGTTNCTVGDLVDLLIQNEFFAPASLLLPDAVPKTANTLPSKEAITVQQKQMPFCDKDRTLMTPVQNLEQSYMPPDSSSPENKSLEVSDTRFHSFSFYELKNVTNNFDERPISVGGNKMGEGGFGVVYKGYVNNTTVAVKKLAAMVDITTEELKQQFDQEIKVMAKCQHENLVELLGFSSDGDDLCLVYVYMPNGSLLDRLSCLDGTPPLSWHMRCKIAQGAANGINFLHENHHIHRDIKSANILLDEAFTAKISDFGLARASEKFAQTVMTSRIVGTTAYMAPEALRGEITPKSDIYSFGVVLLEIITGLPAVDEHREPQLLLDIKEEIEDEEKTIEDYIDKKMNDADSTSVEAMYSVASQCLHEKKNKRPDIKKVQQLLQEMTAS
modifications: left off: small tags and cut ends
B6: MAP3K5(ASK1) (protein)
chain: MSTEADEGITFSVPPFAPSGFCTIPEGGICRRGGAAAVGEGEEHQLPPPPPGSFWNVESAAAPGIGCPAATSSSSATRGRGSSVGGGSRRTTVAYVINEASQGQLVVAESEALQSLREACETVGATLETLHFGKLDFGETTVLDRFYNADIAVVEMSDAFRQPSLFYHLGVRESFSMANNIILYCDTNSDSLQSLKEIICQKNTMCTGNYTFVPYMITPHNKVYCCDSSFMKGLTELMQPNFELLLGPICLPLVDRFIQLLKVAQASSSQYFRESILNDIRKARNLYTGKELAAELARIRQRVDNIEVLTADIVINLLLSYRDIQDYDSIVKLVETLEKLPTFDLASHHHVKFHYAFALNRRNLPGDRAKALDIMIPMVQSEGQVASDMYCLVGRIYKDMFLDSNFTDTESRDHGASWFKKAFESEPTLQSGINYAVLLLAAGHQFESSFELRKVGVKLSSLLGKKGNLEKLQSYWEVGFFLGASVLANDHMRVIQASEKLFKLKTPAWYLKSIVETILIYKHFVKLTTEQPVAKQELVDFWMDFLVEATKTDVTVVRFPVLILEPTKIYQPSYLSINNEVEEKTISIWHVLPDDKKGIHEWNFSASSVRGVSISKFEERCCFLYVLHNSDDFQIYFCTELHCKKFFEMVNTITEEKGRSTEEGDCESDLLEYDYEYDENGDRVVLGKGTYGIVYAGRDLSNQVRIAIKEIPERDSRYSQPLHEEIALHKHLKHKNIVQYLGSFSENGFIKIFMEQVPGGSLSALLRSKWGPLKDNEQTIGFYTKQILEGLKYLHDNQIVHRDIKGDNVLINTYSGVLKISDFGTSKRLAGINPCTETFTGTLQYMAPEIIDKGPRGYGKAADIWSLGCTIIEMATGKPPFYELGEPQAAMFKVGMFKVHPEIPESMSAEAKAFILKCFEPDPDKRACANDLLVDEFLKVSSKKKKTQPKLSALSAGSNEYLRSISLPVPVLVEDTSSSSEYGSVSPDTELKVDPFSFKTRAKSCGERDVKGIRTLFLGIPDENFEDHSAPPSPEEKDSGFFMLRKDSERRATLHRILTEDQDKIVRNLMESLAQGAEEPKLKWEHITTLIASLREFVRSTDRKIIATTLSKLKLELDFDSHGISQVQVVLFGFQDAVNKVLRNHNIKPHWMFALDSIIRKAVQTAITILVPELRPHFSLASESDTADQEDLDVEDDHEEQPSNQTVRRPQAVIEDAVATSGVSTLSSTVSHDSQSAHRSLNVQLGRMKIETNRLLEELVRKEKELQALLHRAIEEKDQEIKHLKLKSQPIEIPELPVFHLNSSGTNTEDSELTDWLRVNGADEDTISRFLAEDYTLLDVLYYVTRDDLKCLRLRGGMLCTLWKAIIDFRNKQT
modifications: left off: a dimerising Fc or GST
B7: EPHA4 (protein)
chain: SRRRSKYSKAKQEADEEKHLNQGVRTYVDPFTYEDPNQAVREFAKEIDASCIKIEKVIGVGEFGEVCSGRLKVPGKREICVAIKTLKAGYTDKQRRDFLSEASIMGQFDHPNIIHLEGVVTKCKPVMIITEYMENGSLDAFLRKNDGRFTVIQLVGMLRGIGSGMKYLSDMSYVHRDLAARNILVNSNLVCKVSDFGMSRVLEDDPEAAYTTRGGKIPIRWTAPEAIAYRKFTSASDVWSYGIVMWEVMSYGERPYWDMSNQDVIKAIEEGYRLPPPMDCPIALHQLMLDCWQKERSDRPKFGQIVNMLDKLIRNPNSLKRTGTESSRPNTALLDPSSPEFSAVVSVGDWLQAIKMDRYKDNFTAAGYTTLEAVVHVNQEDLARIGITAITHQNKILSSVQAMRTQMQQMHGRMVPV
modifications: left off: a dimerising Fc or GST
B8: MAP3K2(MEKK2) (protein)
chain: MDDQQALNSIMQDLAVLHKASRPALSLQETRKAKSSSPKKQNDVRVKFEHRGEKRILQFPRPVKLEDLRSKAKIAFGQSMDLHYTNNELVIPLTTQDDLDKAVELLDRSIHMKSLKILLVINGSTQATNLEPLPSLEDLDNTVFGAERKKRLSIIGPTSRDRSSPPPGYIPDELHQVARNGSFTSINSEGEFIPESMDQMLDPLSLSSPENSGSGSCPSLDSPLDGESYPKSRMPRAQSYPDNHQEFSDYDNPIFEKFGKGGTYPRRYHVSYHHQEYNDGRKTFPRARRTQGTSLRSPVSFSPTDHSLSTSSGSSIFTPEYDDSRIRRRGSDIDNPTLTVMDISPPSRSPRAPTNWRLGKLLGQGAFGRVYLCYDVDTGRELAVKQVQFDPDSPETSKEVNALECEIQLLKNLLHERIVQYYGCLRDPQEKTLSIFMEYMPGGSIKDQLKAYGALTENVTRKYTRQILEGVHYLHSNMIVHRDIKGANILRDSTGNVKLGDFGASKRLQTICLSGTGMKSVTGTPYWMSPEVISGEGYGRKADIWSVACTVVEMLTEKPPWAEFEAMAAIFKIATQPTNPKLPPHVSDYTRDFLKRIFVEAKLRPSADELLRHMFVHYH
modifications: left off: a dimerising Fc or GST
B9: MAP3K9(MLK1) (protein)
chain: MEPSRALLGCLASAAAAAPPGEDGAGAGAEEEEEEEEEAAAAVGPGELGCDAPLPYWTAVFEYEAAGEDELTLRLGDVVEVLSKDSQVSGDEGWWTGQLNQRVGIFPSNYVTPRSAFSSRCQPGGEDPSCYPPIQLLEIDFAELTLEEIIGIGGFGKVYRAFWIGDEVAVKAARHDPDEDISQTIENVRQEAKLFAMLKHPNIIALRGVCLKEPNLCLVMEFARGGPLNRVLSGKRIPPDILVNWAVQIARGMNYLHDEAIVPIIHRDLKSSNILILQKVENGDLSNKILKITDFGLAREWHRTTKMSAAGTYAWMAPEVIRASMFSKGSDVWSYGVLLWELLTGEVPFRGIDGLAVAYGVAMNKLALPIPSTCPEPFAKLMEDCWNPDPHSRPSFTNILDQLTTIEESGFFEMPKDSFHCLQDNWKHEIQEMFDQLRAKEKELRTWEEELTRAALQQKNQEELLRRREQELAEREIDILERELNIIIHQLCQEKPRVKK
modifications: left off: a dimerising Fc or GST

System: kinases of Table 6 on Myelin Basic Protein (MBP)
Experiment: Kinase assay using MBP substrate, ProQ Diamond stain (Table 6)
Format: biochemical
Settings: kinase printed on MBP-coated slide; 20 uM ATP, 30° C.; ProQ Diamond Microarray Stain; graded Strong/Weak/Negative
Description: In this illustrative example, four-well slides were designed with a hydrophobic mask surrounding 4-wells of aldehyde- or epoxy-coated glass (smooth or ES grade; Erie Scientific (Portsmouth, N.H.)). […] Bovine, dephosphorylated, Myelin Basic Protein (MBP) was purchased from Upstate Biotechnology (#13-110). MBP was diluted to 1 mg/ml in PBS, applied to the slide surface, covered with a coverslip, and left overnight at 4° C. to coat the slide with the MBP. Slides were washed 3 times with water and spun dry before printing.
Kinases were purchased from Panvera (Invitrogen, Carlsbad, Calif.), diluted in printing buffer (50 mM Tris pH 7.5, 25% glyercol, 0.05% TritonX-100, 2 mM DTT) and deposited using a GeneMachine OmniGrid100. Slides were stored at −20° C.
Reactions were performed following removal of the slide from the freezer. Reaction buffer (20 mM HEPES pH 7.5, 4 mM MgCl2, 2 mM DTT, 20 uM ATP, 5% DMSO) was added with or without inhibitor, a coverslip applied, and the slide placed at 30° C. for the appropriate reaction time. The slide was washed with water to stop the reaction (3 times) and spun dry. ProQ Diamond Microarray Stain (Invitrogen #P33706) was applied, covered with a coverslip, and the slide was incubated in the dark at room temperature for 30 minutes. The slide was destained and washed three times with water, and spun dry.

Molecule | MBP Kinase Activity
B1 | Negative
B2 | Negative
B3 | Weak
B4 | Negative
B5 | Strong
B6 | Weak
B7 | Strong
B8 | Weak
B9 | Strong
